Source: US20250289893A1 (OXFORD UNIVERSITY INNOVATION, published 2025)
Where a chain is given by its changes, count along the chain named.

Tests used:
[1] = target: T1, human CD1a expressed on cells (human, UniProt P06126 17-327; P61769 21-119); experiment: flow cytometry, MOLT4 cells, 31.6 µg/ml antibody
T1 construct: also called HEK - CD1a; C1R - CD1a
Experimental: (§1) CD1a-specific antibodies were identified by flow cytometry. Binding to proteins expressed on HEK, C1R and MOLT4 cell lines was assessed. […] The C1R-CD1a, C1R-empty vector and MOLT4 cell lines were washed in 1×PBS on the day required. All cell lines were counted and resuspended in 1×PBS and then stained for 30 minutes at 37° C. using the DiI or DiO cellular stains (Invitrogen). Cells were washed with flow cytometry buffer (1% bovine serum albumin, 2 mM EDTA and 0.1% sodium azide in PBS) before mixing 2 DiI-stained and DiO-stained populations together. The cells (20 μl/well) were then added to dilutions of antibody sample (B cell culture supernatant, TAP supernatant, clone supernatant, purified antibody solution) (20 μl/well) and incubated for 1 hour at 4° C. in a flow cytometry assay plate, before being washed with flow cytometry buffer. 10 μl/well of Alexafluor647-conjugated goat anti-species IgG Fc-specific F(ab′)2 fragment (Jackson ImmunoResearch), diluted 1:2500 in flow cytometry buffer, was added and incubated at 4° C. for 30 minutes, followed by washing with wash buffer. The fluorescence intensity was then measured on an iQue screener PLUS.
(§2) Binding was quantified as fold change in fluorescence intensity geomean over background assessed by flow cytometry.

[2] = target: T2, human CD1a protein (pool B) (human, UniProt P06126 18-295, limits assumed); experiment: ELISA, 0.316 µg/ml antibody
T2 construct: Recombinant protein of the ELISA (coated) and the Biacore T200 titration; whole entry named; also called human CD1a pool B; full length CD1a
Experimental: (§3) CD1a-specific antibodies were identified by ELISA. […] 20 μl/well of peroxidase-conjugated goat anti-species IgG Fc-specific F(ab′)2 fragment (Jackson ImmunoResearch), diluted 1:5000 in block buffer was added and incubated at room temperature for 1 hour, followed by washing with wash buffer.
(§4) The antibodies were titrated through a dilution series and compared to a control rabbit IgG antibody.

[3] = target: T1, human CD1a expressed on cells; experiment: flow cytometry, C1R cells, 1 µg/ml antibody
Experimental: (§5) Binding to proteins expressed on HEK, C1R and MOLT4 cell lines was assessed. […] The C1R-CD1a, C1R-empty vector and MOLT4 cell lines were washed in 1×PBS on the day required. All cell lines were counted and resuspended in 1×PBS and then stained for 30 minutes at 37° C. using the DiI or DiO cellular stains (Invitrogen). Cells were washed with flow cytometry buffer (1% bovine serum albumin, 2 mM EDTA and 0.1% sodium azide in PBS) before mixing 2 DiI-stained and DiO-stained populations together. The cells (20 μl/well) were then added to dilutions of antibody sample (B cell culture supernatant, TAP supernatant, clone supernatant, purified antibody solution) (20 μl/well) and incubated for 1 hour at 4° C. in a flow cytometry assay plate, before being washed with flow cytometry buffer. 10 μl/well of Alexafluor647-conjugated goat anti-species IgG Fc-specific F(ab′)2 fragment (Jackson ImmunoResearch), diluted 1:2500 in flow cytometry buffer, was added and incubated at 4° C. for 30 minutes, followed by washing with wash buffer. The fluorescence intensity was then measured on an iQue screener PLUS.
as §2

[4] = target: T3, chimeric CD1a pool B protein [human CD1a lipid binding domain, mouse CD1d Ig domain] (human; mouse, UniProt P06126 18-201; P11609 205-297, limits assumed); experiment: ELISA, 31.6 µg/ml antibody
Experimental: as §3
(§6) The antibodies were titrated through a dilution series and compared to a control rabbit IgG antibody. […] Data shown for purified antibodies.

[5] = target: T4, human CD1b expressed on HEK-293 cells (human, UniProt P29016 18-333; P61769 21-119); experiment: flow cytometry, HEK-293 cells, 0.0316 µg/ml antibody
T4 construct: also called HEK - CD1b
Experimental: as §5
(§7) HEK-293 cells were transiently transfected with human CD1a, CD1b, CD1c or CD1d and co-transfected with human β2M.

[6] = target: T5, human CD1d expressed on HEK-293 cells (human, UniProt P15813 20-335; P61769 21-119); experiment: as above
T5 construct: also called HEK - CD1d
Experimental: as §5, §7

[7] = target: T6, human CD1c expressed on HEK-293 cells (human, UniProt P29017 18-333; P61769 21-119); experiment: as above
T6 construct: also called HEK - CD1c
Experimental: as §5, §7

[8] = target: T1, human CD1a expressed on cells; experiment: as above
Experimental: as §5, §7

[9] = target: T2, human CD1a protein (pool B); experiment: ELISA, 3.16 µg/ml antibody
Experimental: as §3, §4

[10] = target: T1, human CD1a expressed on cells; experiment: flow cytometry, MOLT4 cells, 0.0316 µg/ml antibody
Experimental: as §1, §2

[11] = target: T1, human CD1a expressed on cells; experiment: flow cytometry, C1R cells, 0.1 µg/ml antibody
Experimental: as §5, §2

[12] = target: T7, Cynomolgus monkey CD1a expressed on HEK-293 cells (Cynomolgus monkey, UniProt A0A2K5VQ68 17-326); experiment: flow cytometry, HEK-293 cells, 0.01 µg/ml antibody
Experimental: as §5, §2

[13] = target: T4, human CD1b expressed on HEK-293 cells; experiment: flow cytometry, HEK-293 cells, 0.1 µg/ml antibody
Experimental: as §5, §7

[14] = target: T5, human CD1d expressed on HEK-293 cells; experiment: flow cytometry, HEK-293 cells, 0.1 µg/ml antibody
Experimental: as §5, §7

[15] = target: T6, human CD1c expressed on HEK-293 cells; experiment: flow cytometry, HEK-293 cells, 0.1 µg/ml antibody
Experimental: as §5, §7

[16] = target: T1, human CD1a expressed on cells; experiment: flow cytometry, HEK-293 cells, 0.1 µg/ml antibody
Experimental: as §5, §7

[17] = target: T3, chimeric CD1a pool B protein [human …; experiment: ELISA, 1 µg/ml antibody
Experimental: as §3, §6

[18] = target: T1, human CD1a expressed on cells; experiment: flow cytometry, MOLT4 cells, 0.1 µg/ml antibody
Experimental: as §1, §2

[19] = target: Chinese variant CD1a protein (human) (UniProt P06126); experiment: ELISA, 0.1 µg/ml antibody
[20] = target: T8, Cynomolgus monkey CD1a protein (Cynomolgus monkey); experiment: ELISA, 10 µg/ml antibody
T8 chain: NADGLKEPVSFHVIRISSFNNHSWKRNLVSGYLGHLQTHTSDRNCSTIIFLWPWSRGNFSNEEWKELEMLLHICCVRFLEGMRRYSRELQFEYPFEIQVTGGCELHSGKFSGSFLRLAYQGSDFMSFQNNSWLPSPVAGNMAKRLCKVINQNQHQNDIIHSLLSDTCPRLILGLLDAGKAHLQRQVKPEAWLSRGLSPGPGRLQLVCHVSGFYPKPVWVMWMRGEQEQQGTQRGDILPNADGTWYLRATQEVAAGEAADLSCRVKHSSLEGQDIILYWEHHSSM

[21] = target: T4, human CD1b expressed on HEK-293 cells; experiment: flow cytometry, HEK-293 cells, 31.6 µg/ml antibody
Experimental: as §5, §7

[22] = target: T5, human CD1d expressed on HEK-293 cells; experiment: flow cytometry, HEK-293 cells, 31.6 µg/ml antibody
Experimental: as §5, §7

[23] = target: T6, human CD1c expressed on HEK-293 cells; experiment: flow cytometry, HEK-293 cells, 31.6 µg/ml antibody
Experimental: as §5, §7

[24] = target: T1, human CD1a expressed on cells; experiment: flow cytometry, HEK-293 cells, 31.6 µg/ml antibody
Experimental: as §5, §7

[25] = target: T7, Cynomolgus monkey CD1a expressed on …; experiment: flow cytometry, HEK-293 cells, 1 µg/ml antibody
Experimental: as §5, §2

T3 sequence (P06126 other isoform, or with tags, fused parts or gaps mutant limits assumed): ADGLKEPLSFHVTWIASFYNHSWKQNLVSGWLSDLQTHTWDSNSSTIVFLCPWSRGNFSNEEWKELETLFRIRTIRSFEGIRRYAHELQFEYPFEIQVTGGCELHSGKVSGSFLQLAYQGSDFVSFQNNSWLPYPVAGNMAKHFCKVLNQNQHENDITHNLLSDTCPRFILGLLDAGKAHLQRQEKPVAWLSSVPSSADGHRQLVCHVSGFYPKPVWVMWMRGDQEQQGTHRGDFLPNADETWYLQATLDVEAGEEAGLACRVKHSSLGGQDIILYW
Chain of Chinese variant CD1a protein (human) (P06126 18-295, change not shown): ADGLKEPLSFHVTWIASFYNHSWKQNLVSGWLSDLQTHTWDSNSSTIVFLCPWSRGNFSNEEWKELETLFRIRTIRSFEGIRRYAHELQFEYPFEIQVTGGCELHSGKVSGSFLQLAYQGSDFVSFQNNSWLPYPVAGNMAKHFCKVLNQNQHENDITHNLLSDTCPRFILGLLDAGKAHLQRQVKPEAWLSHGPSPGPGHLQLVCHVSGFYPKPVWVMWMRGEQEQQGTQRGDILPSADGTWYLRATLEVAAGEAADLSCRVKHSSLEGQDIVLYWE
T2 sequence (P06126 18-295 limits assumed): as the sequence (P06126 18-295, change not shown) above
T7 sequence (A0A2K5VQ68 entry or part of it): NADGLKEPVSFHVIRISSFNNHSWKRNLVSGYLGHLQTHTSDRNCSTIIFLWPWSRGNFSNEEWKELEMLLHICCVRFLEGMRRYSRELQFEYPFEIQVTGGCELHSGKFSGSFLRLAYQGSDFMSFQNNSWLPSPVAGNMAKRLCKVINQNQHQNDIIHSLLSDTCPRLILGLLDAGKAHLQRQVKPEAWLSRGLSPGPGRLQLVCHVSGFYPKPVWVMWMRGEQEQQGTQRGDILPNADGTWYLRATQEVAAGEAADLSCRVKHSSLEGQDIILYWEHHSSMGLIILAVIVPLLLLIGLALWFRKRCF

B1: 110 (VR12112) (antibody, V domains shown)
VH: QSVEESGGRLVTPGTPLTLTCTVSGFSLSSYAMIWVRQAPGKGLEWIGIINSSDNTHYATWAKGRFTISKTSTTVDLKITSPTTEDTATYFCARDPYDYGYGWYFDLWGPGTLVTVSS
VL: AQVLTQTPSPVSAAVGGTVTINCQASQSVFNNKNLAWYQQKPGQPPKLLIYKASTLASGVSSRFKGSGSGTQFALTISGVQCDDAATYYCQGEFSCSSTDCVTFGGGTEVVVK
notes: also called OX110; antibody 110
[1]
  Fluorescence Intensity Geomean (normalized to background): 7.5 fold over background
[2]
  Optical Density (OD): 1.18 OD
[3]
  Fluorescence Intensity Geomean (normalized to background): 28.2 fold over background
[4]
  Optical Density (OD): 1.4 OD
[5]
  Fluorescence Intensity Geomean (normalized to background): 1 fold over background
[6]
  Fluorescence Intensity Geomean (normalized to background): 1 fold over background
[7]
  Fluorescence Intensity Geomean (normalized to background): 1 fold over background
[8]
  Fluorescence Intensity Geomean (normalized to background): 8.9 fold over background
[9]
  Optical Density (OD): 1.27 OD
[10]
  Fluorescence Intensity Geomean (normalized to background): 1.6 fold over background
[11]
  Fluorescence Intensity Geomean (normalized to background): 25.8 fold over background
[12]
  Fluorescence Intensity Geomean (normalized to background): 1.2 fold over background
[13]
  Fluorescence Intensity Geomean (normalized to background): 1 fold over background
[14]
  Fluorescence Intensity Geomean (normalized to background): 1 fold over background
[15]
  Fluorescence Intensity Geomean (normalized to background): 1 fold over background
[16]
  Fluorescence Intensity Geomean (normalized to background): 20.2 fold over background
[17]
  Optical Density (OD): 1.45 OD
[18]
  Fluorescence Intensity Geomean (normalized to background): 16.8 fold over background
[19]
  Optical Density (OD): 1.57 OD
[20]
  Optical Density (OD): 0.86 OD
[21]
  Fluorescence Intensity Geomean (normalized to background): 1.1 fold over background
[22]
  Fluorescence Intensity Geomean (normalized to background): 1.1 fold over background
[23]
  Fluorescence Intensity Geomean (normalized to background): 1 fold over background
[24]
  Fluorescence Intensity Geomean (normalized to background): 10.9 fold over background

B2: 77A (VR11851) (antibody, V domains shown)
VH: QSVEESGGRLVTPGTPLTLTCTVSGFSLSSYAMSWVRQAPGKGLEWIGIISSSGTTYYASWAKGRFTISKTSTTVDLKITSPTTEDTATYFCARVDYYSSGWGGLWGPGTLVTVSS
VL: AVEMTQTPASMSAAVGGTVTIKCQASEDIYSNLAWYQQKPGQPPKLLIYGASTLASGVPSRFKGSGSGTEYTLTISGVQCDDAATYYCQCTYDTSSYGNTFGGGTEMVVE
notes: also called OX77a; antibody 77a
[1]
  Fluorescence Intensity Geomean (normalized to background): 2.2 fold over background
[2]
  Optical Density (OD): 1.39 OD
[3]
  Fluorescence Intensity Geomean (normalized to background): 10.3 fold over background
[4]
  Optical Density (OD): 1.33 OD
[5]
  Fluorescence Intensity Geomean (normalized to background): 0.9 fold over background
[6]
  Fluorescence Intensity Geomean (normalized to background): 0.9 fold over background
[7]
  Fluorescence Intensity Geomean (normalized to background): 1 fold over background
[8]
  Fluorescence Intensity Geomean (normalized to background): 24.9 fold over background
[9]
  Optical Density (OD): 1.33 OD
[10]
  Fluorescence Intensity Geomean (normalized to background): 8.7 fold over background
[11]
  Fluorescence Intensity Geomean (normalized to background): 16.4 fold over background
[12]
  Fluorescence Intensity Geomean (normalized to background): 1.7 fold over background
[25]
  Fluorescence Intensity Geomean (normalized to background): 10.6 fold over background
[13]
  Fluorescence Intensity Geomean (normalized to background): 1 fold over background
[14]
  Fluorescence Intensity Geomean (normalized to background): 0.9 fold over background
[15]
  Fluorescence Intensity Geomean (normalized to background): 0.9 fold over background
[16]
  Fluorescence Intensity Geomean (normalized to background): 43.8 fold over background
[17]
  Optical Density (OD): 1.26 OD
[18]
  Fluorescence Intensity Geomean (normalized to background): 12.4 fold over background
[19]
  Optical Density (OD): 1.05 OD
[20]
  Optical Density (OD): 0.52 OD
[21]
  Fluorescence Intensity Geomean (normalized to background): 1 fold over background
[22]
  Fluorescence Intensity Geomean (normalized to background): 1 fold over background
[23]
  Fluorescence Intensity Geomean (normalized to background): 0.9 fold over background
[24]
  Fluorescence Intensity Geomean (normalized to background): 8.2 fold over background

B3: 111 (VR12113) (antibody, V domains shown)
VH: QSVEESGGRLVTPGTPLTLTCTASGFSLSTYAMSWVRQAPGKGLEWIGIISSSGSTYYASWAKGRFTISKTSTTVDLKITSPTTEDTATYFCARETWYWLDLWGQGTLVTVSS
VL: B2 VL with M11V, K22N, T91A, T94S, N99T, T100P, M107V, E110K
notes: also called OX111
[1]
  Fluorescence Intensity Geomean (normalized to background): 5.4 fold over background
[2]
  Optical Density (OD): 1.04 OD
[3]
  Fluorescence Intensity Geomean (normalized to background): 28 fold over background
[4]
  Optical Density (OD): 1.35 OD
[5]
  Fluorescence Intensity Geomean (normalized to background): 1 fold over background
[6]
  Fluorescence Intensity Geomean (normalized to background): 1 fold over background
[7]
  Fluorescence Intensity Geomean (normalized to background): 1 fold over background
[8]
  Fluorescence Intensity Geomean (normalized to background): 11.1 fold over background
[9]
  Optical Density (OD): 1.13 OD
[10]
  Fluorescence Intensity Geomean (normalized to background): 12.4 fold over background
[11]
  Fluorescence Intensity Geomean (normalized to background): 25.4 fold over background
[12]
  Fluorescence Intensity Geomean (normalized to background): 8.9 fold over background
[25]
  Fluorescence Intensity Geomean (normalized to background): 12.9 fold over background
[13]
  Fluorescence Intensity Geomean (normalized to background): 1 fold over background
[14]
  Fluorescence Intensity Geomean (normalized to background): 1 fold over background
[15]
  Fluorescence Intensity Geomean (normalized to background): 1 fold over background
[16]
  Fluorescence Intensity Geomean (normalized to background): 23.1 fold over background
[17]
  Optical Density (OD): 1.36 OD
[18]
  Fluorescence Intensity Geomean (normalized to background): 20.6 fold over background
[19]
  Optical Density (OD): 1.52 OD
[20]
  Optical Density (OD): 0.79 OD
[21]
  Fluorescence Intensity Geomean (normalized to background): 1 fold over background
[22]
  Fluorescence Intensity Geomean (normalized to background): 1 fold over background
[23]
  Fluorescence Intensity Geomean (normalized to background): 1 fold over background
[24]
  Fluorescence Intensity Geomean (normalized to background): 6.3 fold over background
